Results as given in article PMC3903436.

Tests used:
[1] = target: MUC16 (CA125), native, membrane-bound on cancer cells (human (endogenous in OVCAR3 and HeLa)) (UniProt Q8WXI7); assay: flow cytometry on cells; OVCAR3 cells in suspension incubated with HEK293T-derived culture supernatant containing soluble mesothelin; bound mesothelin detected with anti-FLAG mAb M2 and FITC-conjugated secondary Ab; culture medium alone as negative control
[2] = target: MUC16 (CA125), native, membrane-bound on cancer cells (human (endogenous in OVCAR3 and HeLa)) (UniProt Q8WXI7)
[3] = target: MUC16 (CA125), native, membrane-bound on cancer cells (human (endogenous in OVCAR3 and HeLa)) (UniProt Q8WXI7); remark: listed apart in the source

| percent of cells positive for bound mesothelin (FLAG epitope tag) [1] | share of MUC16-positive cells in the HeLa cell pool after Meso-TR3 treatment, by flow cytometry (80% to 54%; non-targeted TR3 did not shift the ratio) [2] | reduction of the luciferase signal (tumor burden) of intraperitoneal OVCAR3 xenografts in NOD/SCID mice at 7 days of i.p. treatment with Meso-TR3 (control and TR3 groups did not respond) [3] | Substance |
| --- | --- | --- | --- |
| 100% |  |  | soluble mesothelin (FLAG tagged, GPI anchor-deleted mature form) (ligand) |
|  | > 30% | 600 fold | Meso-TR3 (mesothelin-TR3 fusion protein) (from UniProt P50591 39-281; P50591 39-281; P50591 39-281) |
